Measured values published in the supplement of paper PMC10567573.

B1: MIA2 (parent)
chain: NSISSDKEATVPCTEILTEKKDTI

Variants of: B1
Assay: protein stability index of a GFP-peptide fusion (GPS, HEK-293T) (PSI 1-6); higher = more stable
Conditions: c terminus: a fixed tail appended
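Note: lentivirally expressed fusions sorted by FACS into six bins by GFP to DsRed ratio, PSI derived from sequencing read proportions per bin multiplied by bin number.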

Protein stability index: each site, then its substitutions
S4: P 5.24 | R 5.35 | L 5.21 | Q 5.63 | C 5.67 | G 4.98 | M 5.43 | F 4.76 | H 5.5 | D 5.54 | T 5.25 | N 5.18
K7: D 5.4 | N 5.51 | H 5.38 | Y 5.17 | R 5.07 | F 4.95 | L 5.52 | Q 5.25 | P 5.62 | E 5.21 | A 5.07 | G 5.8 | W 5.05 | I 5.27 | S 5.5
A9: E 5.28 | R 5.23 | C 4.71 | I 5.3 | M 5.59 | Q 5.25 | N 4.88 | P 5.38 | H 5.32 | T 5.38 | W 4.79 | Y 5.05 | S 5.31 | F 5.36
I3: P 5.36 | D 5.44 | Y 5.58 | C 5.33 | N 5.7 | R 5.7 | F 5.38 | T 4.68 | V 5.45 | G 5.54 | L 5.02 | H 5.43 | K 5.71
K21: C 5.27 | W 4.59 | Q 5 | T 5.51 | F 5.07 | P 5.36 | E 5.69 | Y 4.84 | D 5.72 | A 5.37 | G 5.16 | L 5.42 | R 5.39 | I 5.14 | H 5.15
E8: F 4.93 | K 5.46 | M 5.14 | Y 4.95 | Q 5.52 | P 5.27 | T 5.17 | W 4.73 | N 5.31 | G 5.37 | C 5.27 | S 5.46 | R 5.74 | I 5.32 | L 5.31
I16: L 5.51 | P 5.52 | D 5.81 | F 5.19 | G 5.11 | A 5.53 | W 5.26 | S 5.41 | Q 5.65
P12: E 5.57 | L 4.54 | F 4.92 | W 4.58 | R 5.38 | H 5 | T 5.48 | K 5.47 | S 5.63 | D 5.53 | C 5.28 | M 5.21 | N 5.51 | Y 4.34
S5: K 5.83 | F 4.94 | G 5.42 | E 5.67 | P 5.59 | I 5.17 | L 5.42 | V 5.46 | Q 5.43 | C 5.25 | M 5.23 | R 4.71 | H 5.47 | N 5.69
T18: M 4.89 | F 5.48 | I 5.19 | E 5.63 | G 5.43 | N 5.46 | Y 5.19 | C 5.05
K20: V 5.31 | M 5.35 | I 5.15 | Y 4.75 | H 5.42 | G 5.47 | S 5.54 | W 4.54 | T 5.48 | E 5.53 | P 5.3 | F 4.64 | Q 5.39 | D 5.68
V11: Y 4.89 | G 5.07 | W 5.22 | Q 5.53 | C 4.84 | I 5.28 | P 5.55 | R 5.28 | S 5.22 | L 5.41 | N 5.49 | D 5.72 | F 5.43 | T 5.67 | M 5.59
E15: W 4.13 | R 4.9 | A 5.24 | I 4.25 | S 5.34 | F 4.46 | V 4.66 | M 4.68 | Y 4.68 | N 5.23 | Q 5.32 | L 4.57 | H 5.04
I24: C 5.68 | P 5.66 | G 5.56 | S 5.69 | Q 5.61 | T 5.67 | D 5.72 | R 5.36 | A 5.66 | W 5.32 | Y 5.36 | N 5.7 | L 5.32 | E 5.81 | M 5.52
S2: H 5.09 | I 5.32 | L 5.37 | P 5.31 | T 5.1 | F 5.37 | G 5.37 | K 5.19 | M 5.54 | E 5.67 | W 5.05 | A 5.52 | C 5.27 | N 5.66 | Y 4.49 | V 5.46
D22: H 4.94 | R 4.89 | P 5.43 | I 4.55 | G 5.33 | A 5.35 | N 5.21 | Y 4.53 | L 4.57 | K 5.16 | F 4.5
T10: K 5.24 | G 5.4 | D 5.61 | P 5.32 | W 5.07 | Q 5.48 | N 5.6 | R 4.85 | H 5.48 | L 5.43 | S 5.72 | M 5.17 | I 5.2 | Y 4.63
D6: F 4.84 | R 4.9 | Q 5.12 | K 5.2 | Y 4.71 | S 5.71 | H 4.89 | V 5.14 | W 4.62 | A 5.45 | T 5.31 | N 5.42 | M 5 | C 4.52 | G 5.28 | E 5.63
C13: K 5.4 | W 5.06 | V 5.58 | D 5.54 | F 5.28 | Y 5.01 | A 5.27 | H 5.15 | S 5.65 | P 5.35 | N 5.7 | R 4.99 | E 5.57 | T 5.66 | Q 5.57 | I 5.54
T14: F 4.93 | L 4.99 | R 5.33 | W 4.74 | A 5.36 | Y 5.1 | K 5.49 | Q 5.13 | E 5.49 | D 5.88 | G 5.09 | N 5.42 | I 5.21
E19: M 5.08 | V 5.18 | L 4.43 | A 5.34 | G 5.22 | H 5.03 | F 4.62 | C 5.21 | S 5.3 | P 5.66 | R 5.42 | N 5.32 | T 5.17
L17: N 5.4 | H 5.21 | Q 5.4 | F 5.29 | V 5.18 | W 4.52 | G 5.64 | R 5.45 | M 5.28 | Y 5.37 | D 5.46 | E 5.78 | K 5.46 | S 5.57 | P 5.62 | T 5.71 | A 5.8
T23: E 5.61 | N 5.24 | R 5.13 | F 4.83 | V 5.32 | C 5.46 | D 5.17 | A 5.55 | Q 5.55 | P 5.65 | G 5.5 | K 5.54 | L 5.37 | Y 5.1 | S 5.47 | W 4.17 | I 5.09
N1: V 5 | K 5.76 | E 5.73 | H 5.44 | Y 4.81 | D 5.25 | F 4.77 | P 5.68 | L 5.09 | C 5.27 | W 4.89 | T 5.05 | I 4.79 | G 5.24 | R 5.48
